The chains are these.
B1: EGFP-Mps1^WT [Drosophila] / MBP-PP1-87B [Drosophila] (parent)
chain 1: MTTPVPRRTKDMMALGLDSDSEDDFNTPYRPRQAAAGERKQQPVASFQVQTRGKENEPHPLPINMLPRRVSELTMMDSDSDEEDIKSNHNLNCAILNDSFVLSPSQELTNSNSNITTRRTPSAAPLKQSDSNLSFLGRFNDMGINCSSQGSPVANSEKQVAKKTAPTLQAAPSATERRPLQETETPLRNELPSTSKTKPDADFITPQVRTIGSTLAGKSRSAVSNDFRAQKVLFQTPMTVSRAAPVASDSISFSLCDTITESPDIPEPPKKAEPPKSQHPSKKSLDHVFRESDKDNVPDKVDNVEPKELVSIPAVAVPPEQPSHKTSNILKIKNHEYTIDKKLGCGGSSSVFLARRSDSGNEFALKVVDLQADPQVVQGYLNETKLLAKLQGNVCVVALYDYQLVREESKLYMVMEKGDCDLNKILQSYTTNLPLYSLMNILYQMLQAVNYIHQHGVIHSDLKPANFLMVSGRLKLIDFGIASNIAVDSTSIIKFSQAGTFNYISPEALTDTSTGNSPMRRADQPKIKISTKSDVWSLGCILYLLLYQKTPFGHIRNVYAKMSAITTPGTSIEYPAIPPYYPIMLVHMAKNCLQLNPKKRPSCTELLQYPFHMIIPLQNLQIPSRTANSN
chain 2: MGDVMNIDSIISRLLEVRGARPGKNVQLSEGEIRGLCLKSREIFLSQPILLELEAPLKICGDIHGQYYDLLRLFEYGGFPPESNYLFLGDYVDRGKQSLETICLLLAYKIKYSENFFLLRGNHECASINRIYGFYDECKRRYSIKLWKTFTDCFNCLPVAAIVDEKIFCCHGGLSPDLTSMEQIRRIMRPTDVPDQGLLCDLLWSDPDKDTMGWGENDRGVSFTFGAEVVAKFLQKHEFDLICRAHQVVEDGYEFFAKRMLVTLFSAPNYCGEFDNAGAMMSVDDTLMCSFQILKPADKRKK

Drawing on publication PMC5433843, this text covers ratio to parent for one variant.

Variants of B1 are the subject of the experiment. The experiment can be described thus: pull-down (MBP-PP1-87B beads, S2 cell lysates), western blot chemiluminescence quantification. The following applies: with MBP-PP1-87B [Drosophila]; at least two independent experiments; mean ± SD; parent: 1; read off a plot. (In general: A western blot detects proteins with antibodies after separation by electrophoresis.)
As for chain 1 K231A F234A, the ratio to parent was found to be 0.3.
